Data taken from US20220396819A1, “METHOD FOR PRODUCING PEPTIDE HAVING PHYSIOLOGICAL ACTIVITY, AND PEPTIDE COMPRISING SHORT LINKER” (priority 2019, published 2022).
Read-outs that look alike come from different tables or passages of the source. Positions of bridges follow the written chain, without caps; N, C: chain ends. No end group written: not given here.

How the values were obtained:
[1] = target: T1, thrombopoietin receptor c-Mpl (human, UniProt P40238 26-635); experiment: cell-based or functional assay
T1 sequence (looked up): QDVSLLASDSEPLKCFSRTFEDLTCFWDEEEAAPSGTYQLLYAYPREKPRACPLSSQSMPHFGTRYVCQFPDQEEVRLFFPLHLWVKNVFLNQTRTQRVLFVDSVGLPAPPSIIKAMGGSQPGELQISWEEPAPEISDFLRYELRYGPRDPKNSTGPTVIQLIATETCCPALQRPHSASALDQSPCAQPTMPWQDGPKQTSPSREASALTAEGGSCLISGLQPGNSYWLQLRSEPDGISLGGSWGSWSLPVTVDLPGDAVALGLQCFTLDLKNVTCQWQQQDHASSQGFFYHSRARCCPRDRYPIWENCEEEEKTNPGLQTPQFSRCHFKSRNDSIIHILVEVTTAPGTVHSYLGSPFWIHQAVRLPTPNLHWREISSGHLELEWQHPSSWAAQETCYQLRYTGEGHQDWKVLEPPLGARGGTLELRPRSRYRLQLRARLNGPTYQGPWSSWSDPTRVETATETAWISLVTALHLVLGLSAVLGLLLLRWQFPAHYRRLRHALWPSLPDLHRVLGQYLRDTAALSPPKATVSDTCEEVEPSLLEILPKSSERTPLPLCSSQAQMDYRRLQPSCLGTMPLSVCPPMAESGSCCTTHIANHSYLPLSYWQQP

[2] = target: T2, VEGFR (Homo sapiens, UniProt P35968); experiment: VEGF inhibitory ability, luciferase assay in VEGFR/NFAT Reporter HEK293 cells; assay type: cell-based
T2 construct: host or cells: VEGFR/NFAT Reporter HEK293 cells
Experimental: The VEGF inhibitory ability of the VEGFR_D2-PAS heterodimer peptide was evaluated by luciferase assay. 40,000 cell/well VEGFR/NFAT Reporter HEK293 cells (BPS Bioscience) were seeded and incubated overnight in a 5% CO2 incubator at 37° C. The cells were incubated overnight in Assay medium (MEM medium (Nacalai Tesque), 1×MEM Non-Essential Amino Acids Solution (Thermo Fisher Scientific), 1 mM Sodium Pyruvate (Nacalai Tesque), 1% Penicillin-Streptomycin (Sigma Aldrich), and 0.3% FBS (Thermo Fisher Scientific)) to starvation. […] The cells were stimulated by culturing in a 5% CO2 incubator at 37° C. for 4 hours.
One-Glo Luciferase Assay System (Promega) was used to detect the signal intensity. Medium supernatant in an amount of 50 μL was removed, 50 μL of One-Glo reagent was added, and the cells were lysed for 10 minutes at room temperature. The luminescence emitted from the cell lysate solution was detected with a Nivo plate reader (Perkin Elmer) to quantify the activation of the VEGFR-NFAT pathway, and the relative signal activity value for the sample without addition of evaluation compound was determined and used as relative receptor activity.
The VEGF inhibitory ability of the cell-free expressed VEGFR_D2-PAS heterodimer peptide was evaluated by luciferase assay. 40,000 cell/well VEGFR/NFAT Reporter HEK293 cells (BPS Bioscience) were seeded and incubated overnight in a 5% CO2 incubator at 37° C. The cells were incubated overnight in Assay medium (MEM medium (Nacalai Tesque), 1×MEM Non-Essential Amino Acids Solution (Thermo Fisher Scientific), 1 mM Sodium Pyruvate (Nacalai Tesque), 1% Penicillin-Streptomycin (Sigma Aldrich), and 0.3% FBS (Thermo Fisher Scientific)) to starvation. To the Assay medium, 100 μL of 10 ng/mL human recombinant VEGF (R&D Systems) was added, and further, MAET-VEGFR_D2-PAS16, MAET-VEGFR_D2-PAS49-b, MAET-VEGFR_D2-PAS100-b, or a cell-free expression solution containing MAET-VEGFR_D2-GS16, or a cell-free expression solution with unexpressed peptide was added at a predetermined dilution factor, and 100 μL of the Assay medium was added to the cells. The cells were stimulated by culturing in a 5% CO2 incubator at 37° C. for 4 hours.
The VEGF inhibitory ability of the VEGFR_D2-PAS heterodimer peptide linker variant was evaluated by luciferase assay. 40,000 cell/well VEGFR/NFAT Reporter HEK293 cells (BPS Bioscience) were seeded and incubated overnight in a 5% CO2 incubator at 37° C. The cells were incubated overnight in Assay medium (MEM medium (Nacalai Tesque), 1×MEM Non-Essential Amino Acids Solution (Thermo Fisher Scientific), 1 mM Sodium Pyruvate (Nacalai Tesque), 1% Penicillin-Streptomycin (Sigma Aldrich), and 0.3% FBS (Thermo Fisher Scientific)) to starvation. To the Assay medium, 10 ng/mL human recombinant VEGF (R&D Systems) was added, and further, a culture supernatant containing VEGFR_D2-PAS16, VEGFR_D2-PAS49, or VEGFR_D2-PAS100 at a predetermined concentration was added, and 100 μL of the Assay medium was added to the cells. The cells were stimulated by culturing in a 5% CO2 incubator at 37° C. for 4 hours. Note that VEGFR_D2-PAS16 was obtained according to the method described in Example 27.

[3] = target: T3, EpoR (UniProt P19235 25-508, limits assumed); experiment: cell-based or functional assay
T3 sequence (looked up): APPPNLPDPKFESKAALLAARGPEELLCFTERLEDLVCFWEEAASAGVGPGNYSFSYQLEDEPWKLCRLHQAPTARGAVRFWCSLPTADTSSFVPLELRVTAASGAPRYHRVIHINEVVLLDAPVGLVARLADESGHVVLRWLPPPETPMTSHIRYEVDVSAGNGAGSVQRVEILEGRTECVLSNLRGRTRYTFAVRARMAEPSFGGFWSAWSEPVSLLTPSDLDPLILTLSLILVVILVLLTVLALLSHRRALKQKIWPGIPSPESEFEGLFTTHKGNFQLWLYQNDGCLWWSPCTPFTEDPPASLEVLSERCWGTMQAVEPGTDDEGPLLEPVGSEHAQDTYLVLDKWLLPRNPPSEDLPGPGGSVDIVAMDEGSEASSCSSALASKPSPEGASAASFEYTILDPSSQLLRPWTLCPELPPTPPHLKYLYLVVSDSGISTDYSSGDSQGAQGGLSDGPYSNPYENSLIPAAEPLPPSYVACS

[4] = target: VEGFR (UniProt P35968 20-1356, limits assumed); experiment: cell-based or functional assay
Sequence of VEGFR (UniProt P35968 20-1356, limits assumed) (P35968 20-1356 limits assumed): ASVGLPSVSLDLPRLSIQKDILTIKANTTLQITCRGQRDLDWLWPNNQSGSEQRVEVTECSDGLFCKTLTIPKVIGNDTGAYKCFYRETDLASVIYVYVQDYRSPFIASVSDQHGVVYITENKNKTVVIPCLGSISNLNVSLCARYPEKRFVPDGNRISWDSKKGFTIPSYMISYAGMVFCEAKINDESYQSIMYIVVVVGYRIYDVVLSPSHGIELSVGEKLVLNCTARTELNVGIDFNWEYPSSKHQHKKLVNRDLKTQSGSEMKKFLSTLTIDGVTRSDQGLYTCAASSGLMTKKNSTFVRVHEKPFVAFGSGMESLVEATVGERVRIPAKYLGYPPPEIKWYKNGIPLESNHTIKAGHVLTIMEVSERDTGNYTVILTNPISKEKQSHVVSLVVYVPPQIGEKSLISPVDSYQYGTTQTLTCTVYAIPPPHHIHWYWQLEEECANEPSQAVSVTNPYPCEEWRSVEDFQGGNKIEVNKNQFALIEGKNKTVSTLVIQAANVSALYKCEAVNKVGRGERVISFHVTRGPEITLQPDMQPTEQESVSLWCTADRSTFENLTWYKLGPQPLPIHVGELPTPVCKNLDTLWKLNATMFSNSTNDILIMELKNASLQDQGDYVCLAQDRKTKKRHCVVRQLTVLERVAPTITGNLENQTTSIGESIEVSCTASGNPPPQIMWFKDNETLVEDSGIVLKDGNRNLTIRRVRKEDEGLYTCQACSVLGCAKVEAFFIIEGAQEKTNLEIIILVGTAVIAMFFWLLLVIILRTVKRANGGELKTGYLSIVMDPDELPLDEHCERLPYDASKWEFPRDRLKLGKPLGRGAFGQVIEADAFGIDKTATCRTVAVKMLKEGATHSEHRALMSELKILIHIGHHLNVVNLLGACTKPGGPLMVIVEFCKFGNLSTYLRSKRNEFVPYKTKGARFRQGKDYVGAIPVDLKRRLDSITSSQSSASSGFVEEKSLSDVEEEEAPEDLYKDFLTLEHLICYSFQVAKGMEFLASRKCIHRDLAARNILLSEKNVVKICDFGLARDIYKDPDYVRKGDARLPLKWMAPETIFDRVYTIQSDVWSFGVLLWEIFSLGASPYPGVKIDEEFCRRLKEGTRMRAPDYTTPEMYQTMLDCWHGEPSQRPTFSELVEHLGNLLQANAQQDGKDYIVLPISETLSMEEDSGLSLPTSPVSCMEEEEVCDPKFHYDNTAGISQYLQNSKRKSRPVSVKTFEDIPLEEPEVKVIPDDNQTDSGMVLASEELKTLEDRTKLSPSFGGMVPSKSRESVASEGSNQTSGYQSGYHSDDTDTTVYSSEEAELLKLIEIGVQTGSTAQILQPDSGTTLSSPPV

T2 sequence (P35968 20-1356): as the sequence (P35968 20-1356 limits assumed) above

Molecule: recombinant human TPO (from UniProt P40225 22-195) (ligand)
- relative CREB phosphorylation level (pCREB ELISA, HEL cells, 100 ng/mL rhTPO) [1]: 143%

Molecule: AETAGPTWCEDDWYYCWLFGTAAPAAPAPAAPAAPAPAAPAAPAPAAPAAPAPAAPAAPAPAAPAAPAPAVCWEDSWGGEVCWLFGT (disulfide 9-16, 72-82) [AET-VEGFR_D2-PAS49]
- IC50 [2]: 1.43 nM

Molecule: AETAGPTWCEDDWYYCWLFGTGGGGSGGGGSGGGGSGVCWEDSWGGEVCWLFGT (disulfide 9-16, 39-49) [AET-VEGFR_D2-GS16]
- IC50 [2]: 2.93 nM

B1: AET-EPO-GS8 (peptide)
peptide: AETGGLYACHMGPMTWVCQPLRGGGGGSGGGGGLYACHMGPMTWVCQPLRG
modifications: disulfide 9-18, 37-46
- EC50 [3]: 0.53 ng/mL

B2: MAETAGPTWCEDDWYYCWLFGTSAPSPSSAPASASAPASPASASASASPASSPASASSASPAASSASPASSVCWEDSWGGEVCWLFGT (peptide)
chain: MAETAGPTWCEDDWYYCWLFGTSAPSPSSAPASASAPASPASASASASPASSPASASSASPAASSASPASSVCWEDSWGGEVCWLFGT
modifications: MAET-VEGFR_D2-PAS49-b; DISULFID (10)..(17) Disulfid bridge between Cys-10 and Cys-17; DISULFID (73)..(83) Disulfid bridge between Cys-73 and Cys-83
- VEGF inhibitory activity (relative VEGF activity) ([2]; Example 39, cell-free expression solution, 10 ng/mL VEGF, FIGS. 71 and 72): higher inhibitory activity than MAET-VEGFR_D2-PAS100-b

B3: AET-VEGFR_D2-PAS49 (peptide)
peptide: AETAGPTWCEDDWYYCWLFGTAAPAAPAPAAPAAPAPAAPAAPAPAAPAAPAPAAPAAPAPAAPAAPAPAVCWEDSWGGEVCWLFGT
modifications: two disulfide bonds in the molecule
- IC50 [4]: 12 ng/mL

B4: AET-VEGFR_D2-PAS100 (peptide)
peptide: AETAGPTWCEDDWYYCWLFGTAAPAAPAPAAPAAPAPAAPAAPAPAAPAAPAPAAPAAPAPAAPAAPAPAAPAAPAPAAPAAPAPAAPAAPAPAAPAAPAPAAPAAPAPAAPAAPAPAAPAVCWEDSWGGEVCWLFGT
modifications: two disulfide bonds in the molecule
- IC50 ([2]; Example 46, culture supernatant, 10 ng/mL VEGF, 4 hours, Table 8): 86 ng/mL
- IC50 [4]: 86 ng/mL

B5: TPO2-PAS100 (peptide)
peptide: GGCADGPTLREWISFCGGAAPAAPAPAAPAAPAPAAPAAPAPAAPAAPAPAAPAAPAPAAPAAPAPAAPAAPAPAAPAAPAPAAPAAPAPAAPAAPAPAAPAAPAPAAPAAPAPAAPAGGCADGPTLREWISFCGG
modifications: two disulfide bonds in the molecule
- relative CREB phosphorylation level (pCREB ELISA, HEL cells) [1]: 112%

B6: TPO2-PAS49 (peptide)
peptide: GGCADGPTLREWISFCGGAAPAAPAPAAPAAPAPAAPAAPAPAAPAAPAPAAPAAPAPAAPAAPAPAGGCADGPTLREWISFCGG
modifications: two disulfide bonds in the molecule
- relative CREB phosphorylation level (pCREB ELISA, HEL cells) [1]: 131%

B7: AET-EPO-PAS49 (peptide)
peptide: AETGGLYACHMGPMTWVCQPLRGAAPAAPAPAAPAAPAPAAPAAPAPAAPAAPAPAAPAAPAPAAPAAPAPAGGLYACHMGPMTWVCQPLRG
modifications: two disulfide bonds in the molecule
- EC50 [3]: 4.3 ng/mL

Molecule: GGCADGPTLREWISFCGGAAPAAPAPGGCADGPTLREWISFCGG (disulfide 3-16, 29-42) [TPO2-PAS8]
- relative CREB phosphorylation level (pCREB ELISA, HEL cells) [1]: 136%

Molecule: GGCADGPTLREWISFCGGGGGGSGGGGGCADGPTLREWISFCGG (disulfide 3-16, 29-42) [TPO2-GS8]
- relative CREB phosphorylation level (pCREB ELISA, HEL cells) [1]: 121%

B8: AET-EPO-GS22 (peptide)
peptide: AETGGLYACHMGPMTWVCQPLRGGGGGSGGGGSGGGGSGGGGSGGGGLYACHMGPMTWVCQPLRG
modifications: disulfide 9-18, 51-60
- EC50 [3]: 1.3 ng/mL

B9: AET-VEGFR_D2-PAS16 (peptide)
peptide: AETAGPTWCEDDWYYCWLFGTAAPAAPAPAAPAAPAPVCWEDSWGGEVCWLFGT
modifications: disulfide 9-16, 39-49
- IC50 [4]: 1.5 ng/mL

B10: AET-EPO-PAS100 (peptide)
peptide: AETGGLYACHMGPMTWVCQPLRGAAPAAPAPAAPAAPAPAAPAAPAPAAPAAPAPAAPAAPAPAAPAAPAPAAPAAPAPAAPAAPAPAAPAAPAPAAPAAPAPAAPAAPAPAAPAAPAPAAPAGGLYACHMGPMTWVCQPLRG
modifications: two disulfide bonds in the molecule
- EC50 [3]: 6.6 ng/mL

B11: AET-VEGFR_D2-GS16 (peptide)
peptide: AETAGPTWCEDDWYYCWLFGTGGGGSGGGGSGGGGSGVCWEDSWGGEVCWLFGT
modifications: disulfide 9-16, 39-49
- IC50 [4]: 16 ng/mL
